Results on one substance are retold here after US20070141570A1.

In the assay the target is RIa isoform of PKA (type I alpha regulatory subunit of cAMP-dependent protein kinase). In words: binding in vitro, method not described.

In turn, “D-AKAP2 (AKAP10) Ile variant, isoleucine at position 646 of SEQ ID NO:2 (from UniProt O43572 507-662)” gave a fold weaker binding than the Val variant of 3 fold.
